# Assay results taken from US20110059095A1 (Regeneron, published 2011).
# T1: C-terminal biotinylated human PAR-2 peptide SEQ ID NO:872 (Gly-35 to Ala) (human, not fully specified; C-terminal biotin (K-B))
# T1 construct: alanine-scan mutant
# T1 peptide: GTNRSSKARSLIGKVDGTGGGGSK
# T2: C-terminal biotinylated human PAR-2 peptide SEQ ID NO:873 (Arg-36 to Ala) (human, not fully specified; C-terminal biotin (K-B))
# T2 construct: alanine-scan mutant
# T2 peptide: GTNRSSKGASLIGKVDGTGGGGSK
# T3: C-terminal biotinylated human PAR-2 peptide SEQ ID NO:874 (Ser-37 to Ala) (human, not fully specified; C-terminal biotin (K-B))
# T3 construct: alanine-scan mutant
# T3 peptide: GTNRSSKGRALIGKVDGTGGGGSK
# T4: C-terminal biotinylated human PAR-2 peptide SEQ ID NO:875 (Leu-38 to Ala) (human, not fully specified; C-terminal biotin (K-B))
# T4 construct: alanine-scan mutant
# T4 peptide: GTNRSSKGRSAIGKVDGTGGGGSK
# T5: C-terminal biotinylated human PAR-2 peptide SEQ ID NO:876 (Ile-39 to Ala) (human, not fully specified; C-terminal biotin (K-B))
# T5 construct: alanine-scan mutant
# T5 peptide: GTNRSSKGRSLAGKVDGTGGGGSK
# T6: C-terminal biotinylated human PAR-2 peptide SEQ ID NO:879 (Val-42 to Ala) (human, not fully specified; C-terminal biotin (K-B))
# T6 construct: alanine-scan mutant
# T6 peptide: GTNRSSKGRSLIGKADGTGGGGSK
# T7: C-terminal biotinylated human PAR-2 peptide SEQ ID NO:881 (Gly-44 to Ala) (human, not fully specified; C-terminal biotin (K-B))
# T7 construct: alanine-scan mutant
# T7 peptide: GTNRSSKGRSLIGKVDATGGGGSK
# T8: C-terminal biotinylated human PAR-2 peptide SEQ ID NO:882 (Thr-45 to Ala) (human, not fully specified; C-terminal biotin (K-B))
# T8 construct: alanine-scan mutant
# T8 peptide: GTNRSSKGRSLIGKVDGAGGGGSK
# T9: full length mouse PAR-2 (mouse, UniProt P55086 26-399)
# T9 construct: also called 293/D9/mPAR-2rec cells
# T9 chain: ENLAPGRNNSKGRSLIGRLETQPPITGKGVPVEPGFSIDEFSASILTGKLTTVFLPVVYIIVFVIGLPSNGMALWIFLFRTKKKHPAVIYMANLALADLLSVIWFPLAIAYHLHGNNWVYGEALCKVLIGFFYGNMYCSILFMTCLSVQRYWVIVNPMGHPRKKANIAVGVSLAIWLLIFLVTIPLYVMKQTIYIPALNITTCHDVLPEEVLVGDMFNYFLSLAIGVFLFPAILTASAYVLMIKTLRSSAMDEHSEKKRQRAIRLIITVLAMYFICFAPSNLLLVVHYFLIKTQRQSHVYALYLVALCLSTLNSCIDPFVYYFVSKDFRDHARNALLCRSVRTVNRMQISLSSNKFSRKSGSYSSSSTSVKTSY
# Columns and labels:
# [1] = biological target: T1, C-terminal biotinylated human PAR-2 …; experiment: alanine scan by biolayer interferometry (Octet Red): C-terminal biotin peptide on streptavidin tips, 200 nM antibody; T1/2 relative to wild-type peptide SEQ ID NO:871
# Description: (§1) In order to more particularly identify the amino acids of PAR-2 with which the PAR-2 antibodies interact, an alanine scanning study was carried out using peptides comprising the activating PAR-2 protease cleavage site.
# (§2) The ability of each peptide mutant to bind to PAR-2 antibodies was measured using biolayer interferometry (Octet Red; ForteBio). Each peptide (2.5 μg/ml) was captured on streptavidin coated biosensor tips (Octet SA sensor) for 10 seconds. To measure binding and dissociation between each peptide and PAR-2 antibody, the peptide-coated biosensors were contacted with 200 nM solutions of PAR-2 antibodies for 5 minutes (binding) followed by transfer to buffer with no antibody for 10 min (dissociation). […] The results are expressed as percent binding and percent T_{1/2} relative to WT peptide (Tables 24-28).
# [2] = biological target: T2, C-terminal biotinylated human PAR-2 …; experiment: as above
# Description: as §1, §2
# [3] = biological target: T3, C-terminal biotinylated human PAR-2 …; experiment: as above
# Description: as §1, §2
# [4] = biological target: T4, C-terminal biotinylated human PAR-2 …; experiment: as above
# Description: as §1, §2
# [5] = biological target: T5, C-terminal biotinylated human PAR-2 …; experiment: as above
# Description: as §1, §2
# [6] = biological target: T6, C-terminal biotinylated human PAR-2 …; experiment: as above
# Description: as §1, §2
# [7] = biological target: T7, C-terminal biotinylated human PAR-2 …; experiment: as above
# Description: as §1, §2
# [8] = biological target: T8, C-terminal biotinylated human PAR-2 …; experiment: as above
# Description: as §1, §2
# full length mouse PAR-2 = biological target: T9, full length mouse PAR-2; experiment: MSD cell binding
# Outline: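 Antibodies, two-fold dilutions from 100 nM to 0.098 nM, bound for 1 h at room temperature to HEK293/D9 cells stably expressing human or mouse PAR-2, detected by sulfo-tagged anti-human IgG electrochemiluminescence. Parental 293/D9 signal was subtracted; EC50 and Bmax came from sigmoidal dose-response fits.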
percent of T1/2 relative to wild-type peptide (average of duplicate experiments) [1] [%],percent of T1/2 relative to wild-type peptide (average of duplicate experiments) [2] [%],percent of T1/2 relative to wild-type peptide (average of duplicate experiments) [3] [%],percent of T1/2 relative to wild-type peptide (average of duplicate experiments) [4] [%],percent of T1/2 relative to wild-type peptide (average of duplicate experiments) [5] [%],percent of T1/2 relative to wild-type peptide (average of duplicate experiments) [6] [%],percent of T1/2 relative to wild-type peptide (average of duplicate experiments) [7] [%],percent of T1/2 relative to wild-type peptide (average of duplicate experiments) [8] [%],Bmax (full length mouse PAR-2) [MSD Unit],EC50 (full length mouse PAR-2) [nM],Binder,binding result (full length mouse PAR-2)
118,106,5,0.2,0.1,1,121,112,,,"H4H581P (antibody, human IgG4, V domains shown, also called mAb H4H581P; H1H581P variable regions) VH: QVQLVESGGGVVQPGRSLRLSCVASGFTFSRYGIHWVRQAPGKGLEWVIVISYDGINKYYADSVKGRFTISRDNSKNTVYLQMNSLRAEDTAVYYCAKGDFWSGYFDYWGQGTLVTVSS VL: DIVMTQTPLSSPVTLGQPASISCRSSQSLVHSDGNTYLSWLHQRPGQPPRLLIYKISNRFSGVPDRFSGSGAGTDFTLQISRVEAEDVGIYYCMQATQFPTFGGGTKVEIK",
,,,,,,,,7220,9.28,"H4H583P (antibody, human IgG4, V domains shown, also called H1H583P variable regions) VH: QVQLVESGGGVVQPGMSLRLSCTASGFTFRRYGMHWVRQAPGKGLEWVAVIWYDGSNKYYADSVKGRFTITRDNSKNTLYLQMNSLRAEDTAIYFCASEITIGDWFDPRGQGTLVTVSS VL: AIQMTQSPSSLSASVGDRVTITCRASQGIRNDLGWFQQKPGKVPKLLIYAASTLHSGVPSRFSGSGFGTDFTLTISSLQPEDFATYYCLQDFNYPLTFGGGTKVEIK",
177,140,85,71,22,0.5,1,64,,,"H4H588N (antibody, human IgG4, V domains shown, also called H2M588N variable regions) VH: EVQLLESGGGLVQPGGSLRLSCAASGFTFSSYAMTWVRQAPGKGLYWVSAISGGRGSAYYADSVKGRFTISRDNSKNTLYLQMNSLRAEDTAVYYCAKEGDSGYDLAYWGRGTLVTVSS VL: DIQMTQSPSSLSASVGDRVTITCRARQGISNNLAWLQQKPGKAPKSLIYAASSLQSGIPSKFSGSGSGTYFTLTISSLQPEDFATYYCQQYKSSPLTFGGGTKVEIK",no binding (tested: 100 nM to 0.098 nM antibody)
